{"source": "paper PMC314469", "about": "“Protein Interaction Networks by Proteome Peptide Scanning” (PLoS Biology, 2004)", "target": "T1, Abp1 SH3 (ABP1_YEAST), P15891", "T1 chain": "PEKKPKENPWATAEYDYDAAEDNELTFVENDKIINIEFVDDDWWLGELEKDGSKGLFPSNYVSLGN", "test": "SPOT array", "data": [{"binder": "RDRLGTLPPDLRP", "note": "[YPR179C 274-286]", "values": [{"measurement": "normalised SPOT signal, Boehringer light units (BLU); mean over the file's lines of this peptide", "value": 201}]}, {"binder": "RDYYLSFPESERP", "note": "[YDR242W 430-442]", "values": [{"measurement": "normalised SPOT signal, Boehringer light units (BLU); mean over the file's lines of this peptide", "value": 41}]}, {"binder": "REGQVLYDPEPFKP", "note": "[YNL086W 58-71]", "values": [{"measurement": "normalised SPOT signal, Boehringer light units (BLU); mean over the file's lines of this peptide", "value": 72.5}]}, {"binder": "RELGLTRPISQKP", "note": "[YHL009W-B 360-372]", "values": [{"measurement": "normalised SPOT signal, Boehringer light units (BLU); mean over the file's lines of this peptide", "value": 2940}]}, {"binder": "RERLRANPTDKKP", "note": "[YOR023C 518-530]", "values": [{"measurement": "normalised SPOT signal, Boehringer light units (BLU); mean over the file's lines of this peptide", "value": 303}]}, {"binder": "REYEKEFPGSYKP", "note": "[YIL085C 485-497]", "values": [{"measurement": "normalised SPOT signal, Boehringer light units (BLU); mean over the file's lines of this peptide", "value": 13.6}]}, {"binder": "RFSSVKTNRTPSKP", "note": "[YOR196C 186-199]", "values": [{"measurement": "normalised SPOT signal, Boehringer light units (BLU); mean over the file's lines of this peptide", "value": 159}]}, {"binder": "RFKYSTNRGIPARP", "note": "[YPL073C 76-89]", "values": [{"measurement": "normalised SPOT signal, Boehringer light units (BLU); mean over the file's lines of this peptide", "value": 110}]}, {"binder": "RFLPKPKVVGPPKP", "note": "[YHR089C 121-134]", "values": [{"measurement": "normalised SPOT signal, Boehringer light units (BLU); mean over the file's lines of this peptide", "value": 1660}]}, {"binder": "RGNDESKNGTPPRP", "note": "[YLR353W 192-205]", "values": [{"measurement": "normalised SPOT signal, Boehringer light units (BLU); mean over the file's lines of this peptide", "value": 89.4}]}, {"binder": "RGQSLEHPVTKKP", "note": "[YGR165W 94-106]", "values": [{"measurement": "normalised SPOT signal, Boehringer light units (BLU); mean over the file's lines of this peptide", "value": 116}]}, {"binder": "RGTSASHSPRPFRP", "note": "[YLL029W 24-37]", "values": [{"measurement": "normalised SPOT signal, Boehringer light units (BLU); mean over the file's lines of this peptide", "value": 168}]}, {"binder": "RHAFRITPQAERP", "note": "[YLL057C 379-391]", "values": [{"measurement": "normalised SPOT signal, Boehringer light units (BLU); mean over the file's lines of this peptide", "value": 555}]}, {"binder": "RIESRNEPLKTRP", "note": "[YMR201C 33-45]", "values": [{"measurement": "normalised SPOT signal, Boehringer light units (BLU); mean over the file's lines of this peptide", "value": 196}]}, {"binder": "RIFPPIDDPLPFKP", "note": "[YDR284C 245-258]", "values": [{"measurement": "normalised SPOT signal, Boehringer light units (BLU); mean over the file's lines of this peptide", "value": 92.4}]}, {"binder": "RIPVLPPPRSPNRP", "note": "[YER158C 359-372]", "values": [{"measurement": "normalised SPOT signal, Boehringer light units (BLU); mean over the file's lines of this peptide", "value": 7670}]}, {"binder": "RKKQKKKPTPTRP", "note": "[YKL089W 337-349]", "values": [{"measurement": "normalised SPOT signal, Boehringer light units (BLU); mean over the file's lines of this peptide", "value": 106}]}, {"binder": "RKLTFADVKKPDKP", "note": "[YMR273C 809-822]", "values": [{"measurement": "normalised SPOT signal, Boehringer light units (BLU); mean over the file's lines of this peptide", "value": 62.6}]}, {"binder": "RKSSDIGHIDPWRP", "note": "[YOR156C 78-91]", "values": [{"measurement": "normalised SPOT signal, Boehringer light units (BLU); mean over the file's lines of this peptide", "value": 77.8}]}, {"binder": "RKTWESIPPKFRP", "note": "[YOR236W 58-70]", "values": [{"measurement": "normalised SPOT signal, Boehringer light units (BLU); mean over the file's lines of this peptide", "value": 1050}]}, {"binder": "RLLLEFDEEYPNKP", "note": "[YGL058W 54-67]", "values": [{"measurement": "normalised SPOT signal, Boehringer light units (BLU); mean over the file's lines of this peptide", "value": 97.1}]}, {"binder": "RLLSTKKPMFDRP", "note": "[YKL219W 373-385]", "values": [{"measurement": "normalised SPOT signal, Boehringer light units (BLU); mean over the file's lines of this peptide", "value": 955}]}, {"binder": "RLNAVKHPKILKP", "note": "[YER081W 41-53]", "values": [{"measurement": "normalised SPOT signal, Boehringer light units (BLU); mean over the file's lines of this peptide", "value": 188}]}, {"binder": "RLNDQDHPLQAKP", "note": "[YHR159W 69-81]", "values": [{"measurement": "normalised SPOT signal, Boehringer light units (BLU); mean over the file's lines of this peptide", "value": 104}]}, {"binder": "RLPKALLPIGNRP", "note": "[YOR260W 63-75]", "values": [{"measurement": "normalised SPOT signal, Boehringer light units (BLU); mean over the file's lines of this peptide", "value": 702}]}, {"binder": "RLSSVSLSKRPERP", "note": "[YKL185W 146-159]", "values": [{"measurement": "normalised SPOT signal, Boehringer light units (BLU); mean over the file's lines of this peptide", "value": 412}]}, {"binder": "RLSVKSSRRNPGKP", "note": "[YGL041C 90-103]", "values": [{"measurement": "normalised SPOT signal, Boehringer light units (BLU); mean over the file's lines of this peptide", "value": 125}]}, {"binder": "RLTSEPNPDLIRP", "note": "[YPR045C 202-214]", "values": [{"measurement": "normalised SPOT signal, Boehringer light units (BLU); mean over the file's lines of this peptide", "value": 94.5}]}, {"binder": "RMTDSVLVKSPQKP", "note": "[YLR006C 664-677]", "values": [{"measurement": "normalised SPOT signal, Boehringer light units (BLU); mean over the file's lines of this peptide", "value": 2960}]}, {"binder": "RNFYKKYTGLPKKP", "note": "[YOL090W 17-30]", "values": [{"measurement": "normalised SPOT signal, Boehringer light units (BLU); mean over the file's lines of this peptide", "value": 112}]}, {"binder": "RNIPPPPPPPPPKP", "note": "[YMR089C 152-165]", "values": [{"measurement": "normalised SPOT signal, Boehringer light units (BLU); mean over the file's lines of this peptide", "value": 1000}]}, {"binder": "RNLFDDAPATPPRP", "note": "[YJL194W 14-27]", "values": [{"measurement": "normalised SPOT signal, Boehringer light units (BLU); mean over the file's lines of this peptide", "value": 126}]}, {"binder": "RNNAYLPEFEPNRP", "note": "[YNL233W 771-784]", "values": [{"measurement": "normalised SPOT signal, Boehringer light units (BLU); mean over the file's lines of this peptide", "value": 44.7}]}, {"binder": "RNRASTLPSYPKP", "note": "[YMR172W 515-527]", "values": [{"measurement": "normalised SPOT signal, Boehringer light units (BLU); mean over the file's lines of this peptide", "value": 224}]}, {"binder": "RNTAQSGNLKPERP", "note": "[YEL062W 541-554]", "values": [{"measurement": "normalised SPOT signal, Boehringer light units (BLU); mean over the file's lines of this peptide", "value": 115}]}, {"binder": "RNTTLTWPQLFKP", "note": "[YOR144C 235-247]", "values": [{"measurement": "normalised SPOT signal, Boehringer light units (BLU); mean over the file's lines of this peptide", "value": 344}]}, {"binder": "RPAGINDSPSPVKP", "note": "[YGR092W 44-57]", "values": [{"measurement": "normalised SPOT signal, Boehringer light units (BLU); mean over the file's lines of this peptide", "value": 71}]}, {"binder": "RPGIPLKPMLAKP", "note": "[YDL164C 386-398]", "values": [{"measurement": "normalised SPOT signal, Boehringer light units (BLU); mean over the file's lines of this peptide", "value": 42200}]}, {"binder": "RPLIQKGPLYQKP", "note": "[YDR104C 1028-1040]", "values": [{"measurement": "normalised SPOT signal, Boehringer light units (BLU); mean over the file's lines of this peptide", "value": 359}]}, {"binder": "RPPPPPIPSTQKP", "note": "[YNL094W 468-480]", "values": [{"measurement": "normalised SPOT signal, Boehringer light units (BLU); mean over the file's lines of this peptide", "value": 2820}]}, {"binder": "RPQIYSEPTRTKP", "note": "[YPR122W 608-620]", "values": [{"measurement": "normalised SPOT signal, Boehringer light units (BLU); mean over the file's lines of this peptide", "value": 373}]}, {"binder": "RPSQTLTPMGNKP", "note": "[YGR097W 8-20]", "values": [{"measurement": "normalised SPOT signal, Boehringer light units (BLU); mean over the file's lines of this peptide", "value": 4080}]}, {"binder": "RPTQVSRPLGGRP", "note": "[YDR024W 78-90]", "values": [{"measurement": "normalised SPOT signal, Boehringer light units (BLU); mean over the file's lines of this peptide", "value": 3290}]}, {"binder": "RQIMIKSPNDFKP", "note": "[YBL034C 808-820]", "values": [{"measurement": "normalised SPOT signal, Boehringer light units (BLU); mean over the file's lines of this peptide", "value": 2000}]}, {"binder": "RQPIVQTPHVPDRP", "note": "[YPR104C 727-740]", "values": [{"measurement": "normalised SPOT signal, Boehringer light units (BLU); mean over the file's lines of this peptide", "value": 56.7}]}, {"binder": "RQPTIATTDKPDRP", "note": "[YDR246W 151-164]", "values": [{"measurement": "normalised SPOT signal, Boehringer light units (BLU); mean over the file's lines of this peptide", "value": 83.4}]}, {"binder": "RRFSKRHNSNPRKP", "note": "[YFR032C 54-67]", "values": [{"measurement": "normalised SPOT signal, Boehringer light units (BLU); mean over the file's lines of this peptide", "value": 89}]}, {"binder": "RRKIERDPNAPKKP", "note": "[YDR174W 96-109]", "values": [{"measurement": "normalised SPOT signal, Boehringer light units (BLU); mean over the file's lines of this peptide", "value": 66.1}]}, {"binder": "RRKKQKKKPTPTRP", "note": "[YKL089W 336-349]", "values": [{"measurement": "normalised SPOT signal, Boehringer light units (BLU); mean over the file's lines of this peptide", "value": 33.3}]}, {"binder": "RRMQKFLPPEGKP", "note": "[YPR140W 364-376]", "values": [{"measurement": "normalised SPOT signal, Boehringer light units (BLU); mean over the file's lines of this peptide", "value": 615}]}, {"binder": "RRQHEQWPAYEKP", "note": "[YHR185C 60-72]", "values": [{"measurement": "normalised SPOT signal, Boehringer light units (BLU); mean over the file's lines of this peptide", "value": 300}]}, {"binder": "RRRDFGAPANKRP", "note": "[YGR074W 130-142]", "values": [{"measurement": "normalised SPOT signal, Boehringer light units (BLU); mean over the file's lines of this peptide", "value": 71.9}]}, {"binder": "RRSADIGTDKPVKP", "note": "[YPL181W 404-417]", "values": [{"measurement": "normalised SPOT signal, Boehringer light units (BLU); mean over the file's lines of this peptide", "value": 121}]}, {"binder": "RRSSYGYNEVPPKP", "note": "[YHL024W 604-617]", "values": [{"measurement": "normalised SPOT signal, Boehringer light units (BLU); mean over the file's lines of this peptide", "value": 188}]}, {"binder": "RSEKIMPFLSPPRP", "note": "[YGL064C 428-441]", "values": [{"measurement": "normalised SPOT signal, Boehringer light units (BLU); mean over the file's lines of this peptide", "value": 701}]}, {"binder": "RSLSLMDPALQKP", "note": "[YDR186C 539-551]", "values": [{"measurement": "normalised SPOT signal, Boehringer light units (BLU); mean over the file's lines of this peptide", "value": 431}]}, {"binder": "RSMTDILPLSSKP", "note": "[YCR066W 152-164]", "values": [{"measurement": "normalised SPOT signal, Boehringer light units (BLU); mean over the file's lines of this peptide", "value": 5410}]}, {"binder": "RSNKWRSIGTPSRP", "note": "[YCR033W 218-231]", "values": [{"measurement": "normalised SPOT signal, Boehringer light units (BLU); mean over the file's lines of this peptide", "value": 148}]}]}
